Experimental findings from patent US20200276294, “Methods and Compositions for Activation of Innate Immune Responses Through RIG-I Like Receptor Signaling” (University of Washington through its Center for …, published 2020) are described below.

Substitutions are numbered along the chain they refer to. A value given as a limit tells only on which side of the number the result lay.

For data set [1], the target named is T1, RIG-I (full-length) (UniProt O95786 O95786:1-925).
T1 sequence: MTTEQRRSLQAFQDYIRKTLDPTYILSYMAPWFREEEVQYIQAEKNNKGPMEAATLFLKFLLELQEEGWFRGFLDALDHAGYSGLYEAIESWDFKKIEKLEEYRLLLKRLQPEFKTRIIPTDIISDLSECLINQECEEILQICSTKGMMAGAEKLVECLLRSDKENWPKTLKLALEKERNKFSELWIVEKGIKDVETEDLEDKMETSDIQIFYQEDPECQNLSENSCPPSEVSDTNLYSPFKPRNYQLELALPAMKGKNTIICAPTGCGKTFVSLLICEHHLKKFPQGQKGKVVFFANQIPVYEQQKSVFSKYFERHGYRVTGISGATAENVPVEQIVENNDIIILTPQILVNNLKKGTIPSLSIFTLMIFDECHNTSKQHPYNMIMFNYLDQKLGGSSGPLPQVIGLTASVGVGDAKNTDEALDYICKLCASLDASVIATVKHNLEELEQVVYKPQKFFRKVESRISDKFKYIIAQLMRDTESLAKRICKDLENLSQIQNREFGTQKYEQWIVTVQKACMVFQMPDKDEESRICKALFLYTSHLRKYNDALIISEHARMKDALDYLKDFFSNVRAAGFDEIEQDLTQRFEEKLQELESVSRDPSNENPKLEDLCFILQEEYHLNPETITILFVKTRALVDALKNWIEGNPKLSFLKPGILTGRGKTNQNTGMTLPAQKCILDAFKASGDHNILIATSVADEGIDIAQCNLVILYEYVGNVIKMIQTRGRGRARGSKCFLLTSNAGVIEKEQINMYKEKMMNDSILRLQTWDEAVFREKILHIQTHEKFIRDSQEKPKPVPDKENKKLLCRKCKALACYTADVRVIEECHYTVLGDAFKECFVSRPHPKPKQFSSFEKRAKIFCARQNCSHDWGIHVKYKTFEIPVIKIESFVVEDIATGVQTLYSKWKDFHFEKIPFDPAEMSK
In words: EMSA; EC50 over all constructs 2.28-7.31 pmol, individual value in figure only; high signaling. On the technique in general: Mobility shift assays separate free from complexed probe on a gel.

Data set [2] has as its target T1, RIG-I (full-length). In words: EMSA; no binding at 0-10 pmol RIG-I; limited RD protection in trypsin assay. Particulars: stem-loops.
Data set [3] deals with T1, RIG-I (full-length). In words: footprint; limited trypsin proteolysis, RD and helicase+CARDs protected; AMP-PNP.
Data set [4] has as its target T1, RIG-I (full-length). As to the kind of experiment: footprint; limited trypsin proteolysis, RD and helicase+CARDs protected; EMSA not possible. The method, then:
RIG-I is maintained in an auto-repressed conformation in uninfected cells where the CARDs interact with either the C-terminal repressor domain (RD), the helicase insertion domain (Hel2i), or both domains. […] To further assess RNA interactions with RIG-I, and to determine how HCV PAMP RNA interacts with the helicase domain and RD of RIG-I, limited-trypsin proteolysis of RIG-I/RNA complexes were conducted for nine RNA constructs selected to represent a range of PAMP activity (FIG. 3). RIG-I is highly sensitive to trypsin proteolysis in the absence of PAMP RNA; however, upon binding to an RNA ligand RIG-I undergoes conformational changes that protect the RD and other RNA-bound domains from trypsin digestion.
Various amounts of RNA (0-10 pmol) were mixed with 30 pmol purified RIG-I protein, 2 μl of 5× reaction buffer (20 mM Tris-HCl, pH 8.0; 1.5 mM MgCl₂; 1.5 mM DTT; 70 mM KCl), 0.67 μl AMP-PNP (10 mg/ml), and nuclease-free water up to 10 μl total volume. Reactions were incubated for 5 minutes at room temperature. […] SDS-PAGE Laemmli sample buffer (Bio-Rad) was then added to the samples and reaction products were analyzed by SDS-PAGE followed by silver stain using the SilverQuest silver staining kit (Invitrogen) as per the manufacturer's instructions.

In data set [5] the target is T1, RIG-I (full-length). As to the kind of experiment: EMSA; EC10 1.42 pmol RIG-I; >50% of RNA bound at 8 pmol; 10 pmol RNA, 20 mM Tris pH 8.0, 1.5 mM MgCl2, 37 C. Particulars: stem-loops.

B1: Con1 pU/UC (ssRNA)
RNA: GGCCAUCCUGUUUUUUUCCCUUUUUUUUUUUCUUUUUUUUUUUUUUUUUUUUUUUUUUUUUUUUUUCUCCUUUUUUUUUCCUCUUUUUUUCCUUUUCUUUCCUUU
modifications: 5'-triphosphate; three G at 5' end
B1: the binding result in data set [1] is recorded as “binds”.

B2: X-region (ssRNA)
RNA: GGUGGCUCCAUCUUAGCCCUAGUCACGGCUAGCUGUGAAAGGUCCGUGAGCCGCUUGACUGCAGAGAGUGCUGAUACUGGCCUCUCUGCAGAUCAAGU
modifications: 5'-triphosphate
On to B2, for which the binding result in data set [2] is “no binding”.

B3: poly-U 62-C (ssRNA)
RNA: UUUUUUUUUUUUUUUUUUUUUUUUUUUUUUUUUUUUUUUUUUUUCUUUUUUUUUUUUUUUUU
modifications: 5'-triphosphate; three G at 5' end
As for B3, in data set [3], the binding result was “binds”.

B4: poly-U 62 (ssRNA)
RNA: B3 RNA with C45U
modifications: 5'-triphosphate; three G at 5' end
Turning to B4, in data set [4], the binding result is given as “binds”.

B5: X-region-U34 (ssRNA)
RNA: GGGUGGCUCCAUCUUAGCCCUAGUCACGGCUAGCUGUGAAAGGUCCGUGAGCUUUUUUUUUUUUUUUUUUUUUUUUUUUUUUUUUUCGCUUGACUGCAGAGAGUGCUGAUACUGGCCUCUCUGCAGAUCAAGU
modifications: 5'-triphosphate
In data set [5], B5 returned an EC50 of under 8 pmol.

B6: U17core (ssRNA)
RNA: GGCCAUCCUGUUUUUUUCCCUUUUUUUUUUUCUUUUUUUUUUUUUUUUUCUCCUUUUUUUUUCCUCUUUUUUUCCUUUUCUUUCCUUUCCCCCCCCCCCCCCCCC
modifications: 5'-triphosphate; three G at 5' end
Take B6: the binding result in data set [3] is listed as “binds”.

B7: JFH1 pU/UC (ssRNA)
RNA: ACUGUUCCUUUUUUUUUUUUUUUUUUUUUUUUUUUUUUUUUUUUUUUUUUUCUUUUUUUUUUUUUUCCCUCUUUCUUCCCUUCUCAUCUUAUUCUACUUUCUUUCUU
modifications: 5'-triphosphate; three G at 5' end
For B7, the binding result in data set [3] was “binds”.
